{"source": "patent US12643935B2", "about": "“PD-L1 binding peptides” (UNIVERSITY OF SOUTHERN CALIFORNIA, priority 2020, dated 2026)", "key": {"hPD-L1 [1]": {"target": "T1, hPD-L1 (Homo sapiens, UniProt Q9NZQ7)", "T1 construct": "designed from A18 to T239 with a methionine added to the N-terminus; hexahistidine tag (C); made in house", "experiment": "Radioactive competition assay: [35S]-SPAM binding to immobilized hPD-L1 with competitor", "details": "5 μM competitor", "procedure": "For radioactive competition assays, hPD-L1-immobilized streptavidin agarose beads were preincubated with the desired competitor for one hour at 4° C. followed by addition of the radiolabeled peptide for 1 h. The ratio of the counts remaining on the beads to the total counts added to the binding reaction was calculated to determine the percent bound."}, "hPD-L1 [2]": {"target": "T1, hPD-L1", "experiment": "Surface plasmon resonance of mPD-1 on immobilized hPD-L1", "details": "SPR, 25° C., one-site saturation binding model; read-out: dissociation constant (KD) hPD-L1/mPD-1", "procedure": "In order to confirm that the expressed hPD-L1 was correctly folded, binding to mPD-1 was measured by SPR. The dissociation constant (KD) between recombinant hPD-L1 and PD-1 was determined to be 3.2±0.3 μM using a one-site saturation binding model (FIG. 7).\nSPR analysis was performed on a Biacore T-100 at the USC Nanobiophysics core. E. coli expressed biotinylated hPD-L1 was immobilized onto a sensor chip SA (GE Healthcare Life Sciences) and different concentrations (from 1.5×10^−7 to 2.9×10^−5 M) of mPD-1 was flowed over the chip at a rate of 50 μL/min for 60 seconds in a buffer consisting of 50 mM HEPES-KOH pH 7.5, 150 mM NaCl, 0.05% (v/v) Tween-20 and 1 mg/mL BSA at 25° C. The response values were fit to a one-site saturation binding model in GraphPad Prism to obtain an equilibrium binding constant."}}, "note": "Entries after “also recorded” stand apart in the source; their conditions may differ.", "data": [{"molecule": "mPD-1: murine variant of PD-1, recombinant extracellular domain with HA tag and His tag (protein, HA tag and His tag, murine variant of PD-1, recombinant extracellular domain with HA tag and His tag) MALEVPNGPWRSLTFYPAWLTVSEGANATFTCSLSNWSEDLMLNWNRLSPSNQTEKQAAFSNGLSQPVQDARFQIIQLPNRHDFHMNILDTRRNDSGIYLCGAISLHPKAKIEESPGAELVVTERILETSTRYPSGGYPYDVPDYALEHHHHHH", "values": [{"measurement": "effect on [35S]-SPAM binding to immobilized hPD-L1", "setting": "hPD-L1 [1]", "result": "significantly inhibited; also recorded: disrupted"}, {"measurement": "Kd", "setting": "hPD-L1 [2]", "result": "~3", "unit": "µM"}]}]}
